The target of one experiment is T1, human TL1A (human, UniProt O95150 72-251, limits assumed).
T1 construct: also called tumor necrosis factor-like cytokine 1A; TNFSF15
T1 sequence (looked up): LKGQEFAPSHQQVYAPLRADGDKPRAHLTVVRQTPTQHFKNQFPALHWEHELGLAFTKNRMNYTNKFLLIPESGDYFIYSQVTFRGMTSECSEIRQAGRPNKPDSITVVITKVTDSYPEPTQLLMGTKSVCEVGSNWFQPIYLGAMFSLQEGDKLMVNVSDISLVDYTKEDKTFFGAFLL
Description: ELISA titration on plate-coated human TL1A, unpurified culture supernatant.

Experiment [1] addresses T2, TL1A in human blood (human, UniProt O95150 72-251, limits assumed).
T2 sequence (looked up): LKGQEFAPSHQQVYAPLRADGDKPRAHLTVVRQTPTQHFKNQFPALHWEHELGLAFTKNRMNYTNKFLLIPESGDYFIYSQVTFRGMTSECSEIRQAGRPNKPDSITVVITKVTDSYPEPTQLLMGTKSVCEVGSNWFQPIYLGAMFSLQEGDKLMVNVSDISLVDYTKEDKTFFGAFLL
Description: cell-based or functional assay.

The target in experiment [2] is T2, TL1A in human blood. The experiment in a line: cell-based or functional assay. The source holds these as a separate data set.
The target in experiment [3] is T3, membrane-bound human TL1A on TNFSF15/HEK293 cells (human, UniProt O95150 1-251).
T3 construct: whole, on cells; also called membrane-associated TL1A
T3 sequence (looked up): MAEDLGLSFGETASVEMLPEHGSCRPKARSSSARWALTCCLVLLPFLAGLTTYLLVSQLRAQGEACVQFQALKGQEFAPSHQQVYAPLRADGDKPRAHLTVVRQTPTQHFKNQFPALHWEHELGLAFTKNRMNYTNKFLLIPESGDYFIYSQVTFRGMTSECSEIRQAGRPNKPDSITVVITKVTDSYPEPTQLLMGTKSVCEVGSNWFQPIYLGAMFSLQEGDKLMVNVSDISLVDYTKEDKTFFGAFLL
The experiment in a line: binding to TNFSF15/HEK293 cells stably transfected with human TL1A.

For experiment [4], the target named is T4, cynomolgus monkey TL1A protein (cynomolgus monkey, UniProt G7PRK8 72-251).
T4 construct: Recombinant protein in ELISA, SPR and the TF-1 assay; In the monkey whole blood IFN-gamma assays the TL1A is made by the animal's own PBMCs; also called cynomolgus TL1A; Cyno TL1A
T4 sequence: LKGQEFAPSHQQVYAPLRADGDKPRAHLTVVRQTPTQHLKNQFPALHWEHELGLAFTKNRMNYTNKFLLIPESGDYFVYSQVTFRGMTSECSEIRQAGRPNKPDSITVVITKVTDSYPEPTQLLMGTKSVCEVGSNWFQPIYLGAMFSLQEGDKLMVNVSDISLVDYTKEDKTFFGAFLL
The experiment in a line: ELISA on recombinant TL1A protein; cynomolgus monkey TL1A.

Experiment [5] deals with T4, cynomolgus monkey TL1A protein. Description: cell-based or functional assay.
Experiment [6] has as its target T5, rat recombinant TL1A protein (rat, UniProt Q8K3Y7 76-252, limits assumed).
T5 construct: also called rat TL1A
T5 sequence (looked up): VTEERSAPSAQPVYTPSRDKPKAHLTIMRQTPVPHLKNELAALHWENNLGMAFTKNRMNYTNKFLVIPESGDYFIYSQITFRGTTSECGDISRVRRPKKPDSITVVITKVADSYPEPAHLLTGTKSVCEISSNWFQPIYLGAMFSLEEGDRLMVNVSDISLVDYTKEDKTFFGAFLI
The experiment in a line: ELISA, titration of the antibody on recombinant rat TL1A, A450 nm against [Ab] (nM), log axis. As for the experimental part: (§1) ELISA for each protein was performed at least three times. The data from a representative experiment are shown and are mean±SD. Abbreviations: A=absorbance, Ab=antibody, Cyno=cynomolgus, nm=nanometer, nM=nanomolar. […] Samples were assayed in triplicate, on two separate occasions. Data presented are the mean TL1A concentrations of three animals per group±SD.

The target in a further experiment is TNFSF10 (TRAIL) (human, UniProt P50591 114-281, limits assumed). The experiment in a line: ELISA. The source says:
(§2) TL1A is the only known ligand for its functional receptor DR3. TL1A is also capable of binding to Decoy receptor 3 (DcR3), a soluble TNF receptor without a transmembrane domain.

Another experiment concerns the target T6, TNFSF6 (FasL) (human, UniProt P48023 134-281, limits assumed).
T6 sequence (looked up): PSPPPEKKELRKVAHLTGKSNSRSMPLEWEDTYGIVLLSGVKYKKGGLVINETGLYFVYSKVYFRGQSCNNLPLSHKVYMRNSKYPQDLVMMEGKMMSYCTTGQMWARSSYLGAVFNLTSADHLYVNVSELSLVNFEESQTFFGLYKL
Description: ELISA.
Description: as §2

The next experiment has as its target TNFSF14 (LIGHT) (UniProt O43557 74-240, limits assumed). The experiment in a line: ELISA.
Description: as §2

Experiment [7] has as its target T7, mouse recombinant TL1A protein (mouse, UniProt Q5UBV8 76-252, limits assumed).
T7 construct: also called mouse TL1A; murine TL1A
T7 sequence (looked up): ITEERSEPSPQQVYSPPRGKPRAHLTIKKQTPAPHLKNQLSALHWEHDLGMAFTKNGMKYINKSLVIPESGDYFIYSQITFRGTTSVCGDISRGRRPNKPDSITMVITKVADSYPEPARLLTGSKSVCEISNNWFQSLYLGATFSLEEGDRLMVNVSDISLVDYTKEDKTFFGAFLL
The experiment in a line: ELISA, titration of the antibody on recombinant mouse TL1A, A450 nm against [Ab] (nM), log axis. As for the experimental part:
as §1

In experiment [8] the target is T8, recombinant human TL1A protein (tumor necrosis factor-like cytokine 1A) (human, UniProt O95150 72-251, limits assumed).
T8 construct: Recombinant protein used in ELISA, SPR and the TF-1 caspase assay; also called TNFSF15; soluble TL1A
T8 sequence (looked up): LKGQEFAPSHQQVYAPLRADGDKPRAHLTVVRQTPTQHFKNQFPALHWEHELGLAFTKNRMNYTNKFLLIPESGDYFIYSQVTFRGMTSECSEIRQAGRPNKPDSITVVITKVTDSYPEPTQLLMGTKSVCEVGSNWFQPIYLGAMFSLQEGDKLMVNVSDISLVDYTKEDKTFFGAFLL
Description: surface plasmon resonance (SPR), recombinant TL1A protein.

The target of experiment [9] is T4, cynomolgus monkey TL1A protein. The description is as above.

Sequence of TNFSF14 (LIGHT) (O43557 74-240 limits assumed): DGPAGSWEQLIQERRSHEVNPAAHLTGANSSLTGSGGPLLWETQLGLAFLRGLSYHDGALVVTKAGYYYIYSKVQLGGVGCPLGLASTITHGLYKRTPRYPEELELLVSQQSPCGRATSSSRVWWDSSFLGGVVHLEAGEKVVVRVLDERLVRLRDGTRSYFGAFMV
Sequence of TNFSF10 (TRAIL) (P50591 114-281 limits assumed): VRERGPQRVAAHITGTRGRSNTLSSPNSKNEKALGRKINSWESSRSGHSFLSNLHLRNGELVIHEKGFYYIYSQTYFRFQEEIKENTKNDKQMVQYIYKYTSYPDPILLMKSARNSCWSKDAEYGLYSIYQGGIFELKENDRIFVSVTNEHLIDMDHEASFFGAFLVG

B1: A212 (antibody, IgG1, V domains shown)
VH: QVQLVQSGAEVKKPGASVKVSCKASGFDIQDTYMHWVRQRPGQGLEWIGRIDPASGHTKYDPKFQVRATITTDTSTSTAYLELSSLRSEDTAVYYCARSGGLPDVWGQGTTVTVSS
VL: EIVLTQSPGTLSLSPGERATLSCRASSSVSYMYWYQQKPGQAPRPLIYATSNLASGIPDRFSGSGSGTDFTLTISRLEPEDFAVYYCQQWEGNPRTFGGGTKLEIK
Take B1: the Kd with human TL1A came out at 0.05 nM. In addition, in the experiment with TL1A in human blood [1], the “% Inhibition at 1 nM Ig; interferon gamma release in human blood” value amounted to 46.8% and the “% Inhibition at 10 nM Ig; interferon gamma release in human blood” value came to 71.2%. In the experiment with TL1A in human blood [2], the “IC50 values, Mean; inhibition of interferon gamma release from multiple human donors” value was 51.3.

B2: anti-TL1A antibody A219 (antibody, V domains shown)
VH: QVQLVQSGAEVKKPGASVKVSCKASGFDIQDTYMHWVKQRPGQGLEWMGRIDPASGHTKYDPKFQVRVTITRDTSTSTVYLELSSLRSEDTAVYYCARSGGLPDVWGQGTTVTVSS
VL: EIVLTQSPGTLSLSPGERATLSCRASSSVSYMYWYQQKPGQAPRPLIYATSNLASGIPDRFSGSGSGTDFTLTISRLEPEDFAVYYCQQWEGNPRTFGGGTKLEIK
notes: Humanized monoclonal IgG1 with a kappa light chain, designed to abolish effector functions
Regarding B2, the 50% effective concentration (EC50) is 17.4 nM in experiment [3] and 0.47 nM in [4]. The “IC50 of inhibition of TL1A-induced caspase activation in cycloheximide-treated TF-1 cells” value in [5] came to 0.59 nM. Moreover, in [5], the “mean IC50 of inhibition of IFN-gamma release in monkey whole blood stimulated with immune complex, IL-12 and IL-18” value amounted to 1.54 nM. For the same molecule, the binding result in experiment [6] was “no binding (tested: about 30 nM)”; with TNFSF10 (TRAIL) it was “no binding”; with TNFSF6 (FasL), “no binding”; in the experiment with TNFSF14 (LIGHT) it was “no binding”; in experiment [7], “no binding (tested: about 30 nM)”. Besides, the figures for the Kd in [8] and in [9] were 0.06 nM and 0.04 nM, respectively.

B3: A213 (antibody, IgG1, V domains shown)
VH: QVQLVQSGAEVKKPGASVKVSCKASGFDIQDTYMHWVRQRPGQGLEWMGRIDPASGHTKYDPKFQVRVTITTDTSTSTVYMELSSLRSEDTAVYYCARSGGLPDVWGQGTTVTVSS
VL: EIVLTQSPGTLSLSPGERATLSCRASSSVSYMYWYQQKPGQAPRPLIYATSNLASGIPDRFSGSGSGTDFTLTISRLEPEDFAVYYCQQWEGNPRTFGGGTKLEIK
The molecule B3 gave a Kd with human TL1A of 0.049 nM. In the experiment with TL1A in human blood [1], the “% Inhibition at 1 nM Ig; interferon gamma release in human blood” value is 48.6% and the “% Inhibition at 10 nM Ig; interferon gamma release in human blood” value stood at 69.8%. The “IC50 values, Mean; inhibition of interferon gamma release from multiple human donors” value with TL1A in human blood [2] was determined as 46.8.
